Test results published in article PMC9735655, “Two Distinct Modes of DNA Binding by an MCM Helicase Enable DNA Translocation”.

Key:
[1] = target: MCM protein of Saccharolobus solfataricus with the C-terminal helix-turn-helix domain removed and a modified linker between the N-terminal domain and the AAA+ ATPase domain (Saccharolobus solfataricus) (UniProt Q9UXG1); test: cryo-EM structure; SsoMCM at 1 mg/mL mixed 5:1 by volume with 1 mM oligonucleotide (T12, T16 or T20-CTATAG-T20), 5 mM ADP-BeF3, magnesium; plunge-frozen; two structural classes, also refined from merged particles
[2] = target: T1, SsoMCM (C-terminal HTH removed, modified interdomain linker; pEE078.1) (Saccharolobus solfataricus, UniProt Q9UXG1 1-265+=GGSGGS+275-612, internal_change); test: cryo-EM; Mg2+, ADP-BeF3; class 1 (six subunits on DNA, 2.48 A); Cryo-EM sample: protein 1 mg/mL mixed 5:1 (v/v) with 1 mM oligonucleotide, 5 mM fresh ADP-BeF3, magnesium present; buffer, salt, pH and temperature not stated in the material; conditions: protein: recombinant; tags: His6-SUMO removed with Ulp1; chain copies: 6; single strand
T1 sequence: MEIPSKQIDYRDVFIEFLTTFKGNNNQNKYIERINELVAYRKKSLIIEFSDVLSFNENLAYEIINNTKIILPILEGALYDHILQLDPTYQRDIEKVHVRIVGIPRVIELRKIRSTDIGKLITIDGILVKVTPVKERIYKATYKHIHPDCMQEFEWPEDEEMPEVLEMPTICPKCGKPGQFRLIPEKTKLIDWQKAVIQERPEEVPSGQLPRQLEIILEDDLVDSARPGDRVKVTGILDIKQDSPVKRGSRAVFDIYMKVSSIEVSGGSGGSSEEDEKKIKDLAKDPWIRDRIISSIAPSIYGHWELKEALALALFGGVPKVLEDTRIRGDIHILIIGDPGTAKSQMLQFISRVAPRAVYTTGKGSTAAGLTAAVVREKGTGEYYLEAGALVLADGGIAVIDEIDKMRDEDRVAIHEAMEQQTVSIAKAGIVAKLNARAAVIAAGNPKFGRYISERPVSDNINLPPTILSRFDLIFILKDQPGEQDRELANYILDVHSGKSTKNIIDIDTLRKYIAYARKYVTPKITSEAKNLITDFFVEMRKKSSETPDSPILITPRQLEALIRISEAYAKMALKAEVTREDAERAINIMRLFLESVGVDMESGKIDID

[3] = target: T1, SsoMCM (C-terminal HTH removed, …); test: cryo-EM; Mg2+, ADP-BeF3; class 1 (six subunits on DNA); Cryo-EM sample: protein 1 mg/mL mixed 5:1 (v/v) with 1 mM oligonucleotide, 5 mM fresh ADP-BeF3, magnesium present; buffer, salt, pH and temperature not stated in the material; conditions: protein: recombinant, tags: His6-SUMO removed with Ulp1, chain copies: 6

Question: For “MCM protein of Saccharolobus solfataricus with the C-terminal helix-turn-helix domain removed and a modified linker between the N-terminal domain and the AAA+ ATPase domain (from UniProt Q9UXG1 1-686) (enzyme)”, which stoichiometry N [1] is on record?
Answer: The stoichiometry N was 6.

Question: Does TTTTTTTTTTTTTTTT (ssDNA) [T16 (16-mer poly-dT)] bind [2]?
Answer: Result: binds

Question: Does TTTTTTTTTTTTTTTTTTTTCTATAGTTTTTTTTTTTTTTTTTTTT (ssDNA) [T20-CTATAG-T20] bind ([3]; central 6-nt palindrome, potential X-shape with 20-mer poly-dT arms)?
Answer: Result: binds

Question: Does TTTTTTTTTTTT (ssDNA) [T12 (12-mer poly-dT)] bind ([3]; single strand)?
Answer: Result: binds
